Target: T1, MD2 bait construct (mIP3R1: 1387-1647 amino acids) in pGBT9 (mouse, UniProt P11881 1387-1647)
T1 construct: also called IP3R1 modulatory domain bait 2; not shown: fusion partner encoded by the bait vector pGBT9 and primer-encoded linker
Experiment: yeast two-hybrid beta-gal assay
Procedure: To determine the respective interaction domains of CARP and IP_3R1, truncated mutants of both genes were prepared and analyzed using yeast two-hybrid system. […] Interactions between CARP mutants and MD2, CARP and IP_3R1 mutants were analyzed by β-gal assay by the yeast two-hybrid system. The prepared mutant and results of β-gal assay in the yeast two-hybrid system (n=3) are shown in FIG. 5. β-gal assay was evaluated by the time of blue colony appearance, i.e., blue colony appears within 30 min (+++), 2 h (++) and 8 hr (+).
Yeast two-hybrid assay in the following examples was conducted using MATCHJMAKER™ Two-Hybrid system according to the manufacturer's protocol (Clontech Laboratories Inc., Palo Alto, Calif., USA).

T1 sequence (P11881 1387-1647): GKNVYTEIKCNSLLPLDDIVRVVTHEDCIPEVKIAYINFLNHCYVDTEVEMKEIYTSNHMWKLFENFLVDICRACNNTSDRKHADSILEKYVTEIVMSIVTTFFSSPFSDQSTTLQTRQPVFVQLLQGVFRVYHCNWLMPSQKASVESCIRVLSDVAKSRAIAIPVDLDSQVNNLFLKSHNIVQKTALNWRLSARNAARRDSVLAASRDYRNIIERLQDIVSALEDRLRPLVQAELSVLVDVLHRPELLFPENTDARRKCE

| Binder | binding result |
| --- | --- |
| pGAD-GL-ΔC4 (CARP; 1-180 amino acids) (other, Yeast two-hybrid truncation construct; not shown: fusion partner encoded by vector pGAD-GL) MADLSFIEDAVAFPEKEEDEEEEEEEGVEWGYEEGVEWGLVFPDANGEYQSPINLNSREARYDPSLLDVRLSPNYVVCRDCEVTNDGHTIQVILKSKSVLSGGPLPGGQEFELYEVRFHWGRENQRGSEHTVNFKAFPMELHLIHWNSTLFGSIDEAVGKPHGIAIIALFVQIGKEHVGL | no binding |
| pGAD-GL-ΔC2 (CARP; 1-147 amino acids) (other, Yeast two-hybrid truncation construct; not shown: fusion partner encoded by vector pGAD-GL) MADLSFIEDAVAFPEKEEDEEEEEEEGVEWGYEEGVEWGLVFPDANGEYQSPINLNSREARYDPSLLDVRLSPNYVVCRDCEVTNDGHTIQVILKSKSVLSGGPLPGGQEFELYEVRFHWGRENQRGSEHTVNFKAFPMELHLIHWN | no binding |
| pGAD-GL-ΔC3 (CARP; 1-170 amino acids) (other, Yeast two-hybrid truncation construct; not shown: fusion partner encoded by vector pGAD-GL) MADLSFIEDAVAFPEKEEDEEEEEEEGVEWGYEEGVEWGLVFPDANGEYQSPINLNSREARYDPSLLDVRLSPNYVVCRDCEVTNDGHTIQVILKSKSVLSGGPLPGGQEFELYEVRFHWGRENQRGSEHTVNFKAFPMELHLIHWNSTLFGSIDEAVGKPHGIAIIALF | no binding |
| pGAD-GL-ΔC9 (CARP; 184-291 amino acids) (other, Yeast two-hybrid truncation construct; not shown: fusion partner encoded by vector pGAD-GL) TEILQDIQYKGKSKTIPCFNPNTLLPDPLLRDYWVYEGSLTIPPCSEGVTWILFRYPLTISQMQIEEFRRLRTHVKGVELVEGCDGILGDNFRPTQPLSDRVIRAAFQ | no binding |
| pGAD-GL-ΔC8 (CARP; 121-291 amino acids) (other, Yeast two-hybrid truncation construct; not shown: fusion partner encoded by vector pGAD-GL) GRENQRGSEHTVNFKAFPMELHLIHWNSTLFGSIDEAVGKPHGIAIIALFVQIGKEHVGLKAVTEILQDIQYKGKSKTIPCFNPNTLLPDPLLRDYWVYEGSLTIPPCSEGVTWILFRYPLTISQMQIEEFRRLRTHVKGVELVEGCDGILGDNFRPTQPLSDRVIRAAFQ | no binding |
| pGAD-GL-ΔC5 (CARP; 1-217 amino acids) (other, Yeast two-hybrid truncation construct; not shown: fusion partner encoded by vector pGAD-GL) MADLSFIEDAVAFPEKEEDEEEEEEEGVEWGYEEGVEWGLVFPDANGEYQSPINLNSREARYDPSLLDVRLSPNYVVCRDCEVTNDGHTIQVILKSKSVLSGGPLPGGQEFELYEVRFHWGRENQRGSEHTVNFKAFPMELHLIHWNSTLFGSIDEAVGKPHGIAIIALFVQIGKEHVGLKAVTEILQDIQYKGKSKTIPCFNPNTLLPDPLLRDYW | no binding |
| pGAD-GL-ΔC6 (CARP; 1-234 amino acids) (other, Yeast two-hybrid truncation construct; not shown: fusion partner encoded by vector pGAD-GL) MADLSFIEDAVAFPEKEEDEEEEEEEGVEWGYEEGVEWGLVFPDANGEYQSPINLNSREARYDPSLLDVRLSPNYVVCRDCEVTNDGHTIQVILKSKSVLSGGPLPGGQEFELYEVRFHWGRENQRGSEHTVNFKAFPMELHLIHWNSTLFGSIDEAVGKPHGIAIIALFVQIGKEHVGLKAVTEILQDIQYKGKSKTIPCFNPNTLLPDPLLRDYWVYEGSLTIPPCSEGVTW | no binding |
| pGAD-GL-ΔC1 (CARP; 1-127 amino acids) (other, Yeast two-hybrid truncation construct; not shown: fusion partner encoded by vector pGAD-GL) MADLSFIEDAVAFPEKEEDEEEEEEEGVEWGYEEGVEWGLVFPDANGEYQSPINLNSREARYDPSLLDVRLSPNYVVCRDCEVTNDGHTIQVILKSKSVLSGGPLPGGQEFELYEVRFHWGRENQRG | no binding |

Target: T1, MD2 bait construct (mIP3R1: 1387-1647 …)
Experiment: yeast two-hybrid screen of a mouse brain cDNA library with MD2 as bait

| Binder | binding result |
| --- | --- |
| carbonic anhydrase-related protein (CARP), full-length, yeast two-hybrid prey in pGAD-GL (other, 13 positive clones from a mouse brain cDNA library; they contain different lengths of 5'UTR of CARP cDNA followed by a full-length coding region in frame; also called mouse CARP; not shown: fusion partner encoded by the library vector pGAD-GL (and in-frame 5'UTR of differing length); not described in the fili) MADLSFIEDAVAFPEKEEDEEEEEEEGVEWGYEEGVEWGLVFPDANGEYQSPINLNSREARYDPSLLDVRLSPNYVVCRDCEVTNDGHTIQVILKSKSVLSGGPLPGGQEFELYEVRFHWGRENQRGSEHTVNFKAFPMELHLIHWNSTLFGSIDEAVGKPHGIAIIALFVQIGKEHVGLKAVTEILQDIQYKGKSKTIPCFNPNTLLPDPLLRDYWVYEGSLTIPPCSEGVTWILFRYPLTISQMQIEEFRRLRTHVKGVELVEGCDGILGDNFRPTQPLSDRVIRAAFQ | binds |

Target: T2, GST (UniProt P08515 1-218 = GST, limits assumed)
T2 construct: Control for the GST fusion proteins; its source is not described; also called GST alone; glutathione S-transferase
T2 sequence (P08515 whole entry, the tested form may be a part): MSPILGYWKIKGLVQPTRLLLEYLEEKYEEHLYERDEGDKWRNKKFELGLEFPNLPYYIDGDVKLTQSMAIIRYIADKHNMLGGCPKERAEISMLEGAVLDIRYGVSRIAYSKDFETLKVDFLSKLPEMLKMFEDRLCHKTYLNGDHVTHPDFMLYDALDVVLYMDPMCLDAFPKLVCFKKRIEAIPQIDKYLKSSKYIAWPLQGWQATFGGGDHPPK
Experiment: GST pull-down from mouse cerebellar cytosolic fraction, Western blot with anti-CARP antibody
Source text: Next, the inventors of the present application examined the interaction between CARP and IP_3R1 by means of a pull-down method in order to obtain further evidence for the interaction by biochemical methods. The inventors first developed expression system in Sf9 cells, and made IP_3R1 soluble by removing the channel domain. The soluble IP_3R1, designated GST-EL, covers both the ligand binding domain and modulatory domain (amino acids 1-2217 Of mIP_3R1) and has GST in its N terminus. Mouse cerebellar cytosolic fraction was incubated with GST-EL or GST, and binding of CARP to the recombinant proteins was analyzed by immunoblotting with anti-CARP antibody. The results are shown in photographs of FIG. 4 which are substituted for drawings.
Adult mouse cerebella were homogenized in 10 mM HEPES (pH 7.4), 320 mM Sucrose, 2 mM EDTA, 1 mM 2-mercaptoethanol, and protease inhibitors and the homogenate was centrifuged at 1,000× g for 10 min. The supernatant was centrifuged at 100,000× g for 60 min to obtain the cytosolic fraction (the supernatant) and the crude microsome (the pellet). The cytosolic fraction was added with 100 mM NaCl, and incubated with 20 μg of GST-EL or GST for 2 hours at 4° C. […] The eluted proteins were analyzed by Western blotting with anti-CARP antibody.

| Binder | binding result |
| --- | --- |
| CARP of the cytosolic fraction of mouse cerebellum (other, Endogenous protein in a tissue fraction, detected by Western blotting with anti-CARP polyclonal antibody; also called endogenous CARP) MADLSFIEDAVAFPEKEEDEEEEEEEGVEWGYEEGVEWGLVFPDANGEYQSPINLNSREARYDPSLLDVRLSPNYVVCRDCEVTNDGHTIQVILKSKSVLSGGPLPGGQEFELYEVRFHWGRENQRGSEHTVNFKAFPMELHLIHWNSTLFGSIDEAVGKPHGIAIIALFVQIGKEHVGLKAVTEILQDIQYKGKSKTIPCFNPNTLLPDPLLRDYWVYEGSLTIPPCSEGVTWILFRYPLTISQMQIEEFRRLRTHVKGVELVEGCDGILGDNFRPTQPLSDRVIRAAFQ | no binding (tested: 20 µg of GST) |

Reference: patent US7276582 (JAPAN SCIENCE AND TECHNOLOGY AGENCY, dated 2007)
